Target: spike_sars2 S (UniProt P0DTC2)

Row | Substance | effect of a mutation on the interaction
1 | Endoplasmic reticulum chaperone BiP (Homo sapiens), P11021 G227D | decreasing interaction strength
2 | Endoplasmic reticulum chaperone BiP (Homo sapiens), P11021 R197H | decreasing interaction strength

Reference: IntAct's records for PubMed 33965375
